{"source": "patent US10520496B2", "about": "(priority 2015, dated 2019)", "key": {"Collagenase I": {"biological_target": "Collagenase I (Hathewaya histolytica, UniProt Q9X721)", "sequence (Q9X721 111-1118)": "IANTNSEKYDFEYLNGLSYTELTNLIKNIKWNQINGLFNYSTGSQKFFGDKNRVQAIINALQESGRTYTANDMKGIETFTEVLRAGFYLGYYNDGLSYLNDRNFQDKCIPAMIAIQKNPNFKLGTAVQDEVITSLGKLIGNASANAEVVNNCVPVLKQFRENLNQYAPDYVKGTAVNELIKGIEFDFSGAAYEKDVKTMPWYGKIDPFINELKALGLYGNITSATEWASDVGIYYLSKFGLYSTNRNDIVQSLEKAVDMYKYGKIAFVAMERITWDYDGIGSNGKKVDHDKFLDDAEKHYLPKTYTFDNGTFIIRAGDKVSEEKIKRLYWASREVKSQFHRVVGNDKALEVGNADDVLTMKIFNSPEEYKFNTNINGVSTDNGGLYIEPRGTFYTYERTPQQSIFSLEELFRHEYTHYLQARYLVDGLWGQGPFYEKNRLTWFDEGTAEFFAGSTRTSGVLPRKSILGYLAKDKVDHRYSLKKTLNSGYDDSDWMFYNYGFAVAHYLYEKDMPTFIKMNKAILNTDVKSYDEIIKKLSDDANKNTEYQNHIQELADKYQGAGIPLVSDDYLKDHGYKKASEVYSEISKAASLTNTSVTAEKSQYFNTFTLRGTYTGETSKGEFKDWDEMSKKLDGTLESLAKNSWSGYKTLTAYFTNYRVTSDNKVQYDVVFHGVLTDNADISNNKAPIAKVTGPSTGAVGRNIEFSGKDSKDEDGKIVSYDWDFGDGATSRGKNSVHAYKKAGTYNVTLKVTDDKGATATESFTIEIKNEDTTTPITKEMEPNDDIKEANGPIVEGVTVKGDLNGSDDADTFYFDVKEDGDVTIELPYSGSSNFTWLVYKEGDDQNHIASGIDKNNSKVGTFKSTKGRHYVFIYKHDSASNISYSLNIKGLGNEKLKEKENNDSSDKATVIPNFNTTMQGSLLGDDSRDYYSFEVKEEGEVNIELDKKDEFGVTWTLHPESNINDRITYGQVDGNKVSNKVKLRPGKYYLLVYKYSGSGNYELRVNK", "type": "biochemical, Clostridium histolyticum", "conditions": "for Km / Vmax: collagenase I 0.45 μg/ml; for effect of zinc on measured RFU (enzymatic cleavage): zinc salt 16.7 μM, presence or absence of CaCl2 4.14 mM, vs control and NaSO4"}, "Collagenase II": {"biological_target": "Collagenase II (Hathewaya histolytica, UniProt Q46085)", "type": "biochemical, Clostridium histolyticum"}, "Thermolysin": {"biological_target": "Thermolysin (Bacillus thermoproteolyticus, UniProt P00800)", "sequence (P00800 233-548)": "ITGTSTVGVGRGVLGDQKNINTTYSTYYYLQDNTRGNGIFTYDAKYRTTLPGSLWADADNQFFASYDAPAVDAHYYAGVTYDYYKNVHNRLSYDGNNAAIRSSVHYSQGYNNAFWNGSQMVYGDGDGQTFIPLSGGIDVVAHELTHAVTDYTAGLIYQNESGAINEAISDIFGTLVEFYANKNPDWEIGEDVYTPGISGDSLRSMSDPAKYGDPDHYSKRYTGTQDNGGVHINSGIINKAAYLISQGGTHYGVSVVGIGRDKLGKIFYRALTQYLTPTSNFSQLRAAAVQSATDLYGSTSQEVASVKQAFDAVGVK", "type": "biochemical", "conditions": "for effect of zinc on measured RFU (enzymatic cleavage): zinc salt 16.7 μM, presence or absence of CaCl2 4.14 mM, vs control and NaSO4"}, "Neutral Protease": {"system": "Neutral Protease", "type": "biochemical, Clostridium histolyticum", "conditions": "for Km / Vmax: neutral protease 20 μg/ml, substrate 5-80 μM, Example 2; for effect of zinc on measured RFU (enzymatic cleavage): zinc salt 16.7 μM, presence or absence of CaCl2 4.14 mM, vs control and NaSO4", "excerpt": "GraphPad Prism (GraphPad Software 6.0, La Jolla, Calif., USA) was used for analyzing the data and generating the graphs. Both non-linear Michaelis-Menten and linear Lineweaver-Burk plots were used for the enzyme kinetics study. Kinetic parameters Vmax and Km were obtained from the Michaelis-Menten model by plotting the reaction velocity at different concentration of peptide substrate. Non-linear Michaelis-Menten curves for the enzymatic reaction in the presence and absence of CaCl2 were compared using Prism. All samples were run in duplicate, and results are reported as average±standard error of the mean (SEM). One-way or two-way ANOVA analysis followed by Tukey's multiple comparisons test was used to conduct multiple variable comparisons when applicable. Differences in data were considered significant when P values were less than 0.05."}, "chymotrypsin": {"biological_target": "chymotrypsin (Bos taurus, UniProt P00766)", "type": "biochemical"}, "elastase": {"biological_target": "elastase (Sus scrofa, UniProt P00772)", "sequence (P00772 27-266)": "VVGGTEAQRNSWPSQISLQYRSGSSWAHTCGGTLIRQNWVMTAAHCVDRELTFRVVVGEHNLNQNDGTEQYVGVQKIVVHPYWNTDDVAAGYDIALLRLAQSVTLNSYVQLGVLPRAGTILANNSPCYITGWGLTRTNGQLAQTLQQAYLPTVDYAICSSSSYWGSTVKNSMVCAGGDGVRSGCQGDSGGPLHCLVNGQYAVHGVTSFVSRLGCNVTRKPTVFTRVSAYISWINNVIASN", "type": "biochemical"}, "collagenase": {"system": "collagenase", "experiment": "Enzymes that can cleave the substrate (Table 2)", "type": "biochemical", "conditions": "general statement"}, "dispase": {"biological_target": "dispase (Paenibacillus polymyxa, UniProt P29148)", "sequence (P29148 287-590)": "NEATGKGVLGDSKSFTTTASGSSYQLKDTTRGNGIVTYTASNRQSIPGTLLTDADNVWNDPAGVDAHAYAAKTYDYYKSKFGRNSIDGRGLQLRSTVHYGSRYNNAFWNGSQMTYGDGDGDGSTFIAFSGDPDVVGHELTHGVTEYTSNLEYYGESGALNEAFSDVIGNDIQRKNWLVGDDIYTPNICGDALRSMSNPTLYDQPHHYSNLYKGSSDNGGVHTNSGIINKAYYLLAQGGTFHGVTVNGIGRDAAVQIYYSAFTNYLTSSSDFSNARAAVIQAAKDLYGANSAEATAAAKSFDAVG", "experiment": "Enzymes that can cleave the substrate (Table 2)", "type": "biochemical", "conditions": "general statement"}, "Collagenase I/II": {"system": "Collagenase I/II", "type": "biochemical", "conditions": "general statement", "description": "The cleavage sites produced by various proteases were analyzed using the known sequence of the novel protease substrate 5FAMcollagenPPT. As provided herein, the cleavage sites were determined based on the results of mass spectrometric analysis of the protease substrate 5FAMcollagenPPT peptide fragments obtained from an enzymatic reaction with various enzymes tested.\nCleavage of the novel fluorogenic protease substrate 5FAMcollagenPPT was further investigated using various proteases. After cleavage of the substrate by proteases, the resulting cleavage products of the protease substrate were specifically analyzed using matrix-assisted laser desorption/ionization (MALDI) mass spectrometry.\nNext, the specific sequences of the protease substrate 5FAMcollagenPPT cleavage products were analyzed using MALDI. Briefly, each protease was incubated for 15 minutes with the protease substrate at 22° C. Buffer conditions and concentrations of the protease substrates and proteases were as described in Example 2. The uncleaved 5FAMcollagenPPT substrate has a molecular weight of 1669.8 Daltons. The molecular weights of the resulting products of the protease substrate after cleavage by various proteases are shown in Table 8 and FIG. 13."}, "[1]": {"system": "proteases listed in Table 7 except thermolysin (Collagenase I Liq, Collagenase II Liq, Collagenase NB1, Collagenase I/II, Neutral Protease NB)", "type": "biochemical", "conditions": "within the first hour; almost all proteases tested except thermolysin; peptide 10 μM; protease 20 μg/mL; pH 7.5"}, "trypsin": {"system": "trypsin", "conditions": "for Enzymes that do not cleave 5FAMcollagenPPT: trypsin: general statement"}, "Botulinum neurotoxin A": {"biological_target": "Botulinum neurotoxin A (Clostridium botulinum, UniProt P0DPI0)"}, "Botulinum neurotoxin B": {"biological_target": "Botulinum neurotoxin B (Clostridium botulinum, UniProt P10844)"}, "[2]": {"conditions": "water"}, "[3]": {"conditions": "with 4.14 mM calcium, substrate 5-80 μM, Example 2"}, "[4]": {"conditions": "without calcium, substrate 5-80 μM, Example 2"}, "[5]": {"conditions": "Example 3 (FIG. 10), thermolysin 17 μg/ml"}, "[6]": {"conditions": "enzyme 0.3125-10 μg/mL, substrate 50 μM, Example 3"}, "[7]": {"conditions": "with 4.14 mM calcium, thermolysin 17 μg/ml, substrate 5-80 μM, Example 2"}, "[8]": {"conditions": "without calcium, thermolysin 17 μg/ml, substrate 5-80 μM, Example 2"}, "[9]": {"conditions": "general statement, listed as 5FAM collagenPPT"}}, "note": "“And” between values parts separate entries of the source, which are not always exact repeats. Identical values can stand only once. “Also recorded” adds a separate entry of the source. Like-named read-outs stand apart in the source and are kept apart here. *: point of attachment. 5FAM = O=C1OC2(c3ccc(O)cc3Oc3cc(O)ccc32)c2ccc(C(=O)*)cc21; DABCYL = quencher, CN(C)c1ccc(/N=N/c2ccc(C(=O)*)cc2)cc1"}
{"compound": "[Ca+2].[Cl-].[Cl-]", "note": "[CaCl2, reference compound]", "values": [{"measurement": "effect of CaCl2 on the cleavage reaction (Michaelis-Menten curves)", "setting": "Collagenase I; CaCl2 4.14 mM, Collagenase I 0.45 μg/ml, substrate 5FAMcollagenPPT 5-80 μM", "result": "significantly enhanced"}, {"measurement": "effect of CaCl2 on the cleavage reaction (Michaelis-Menten curves)", "setting": "Collagenase II", "result": "did not change significantly"}, {"measurement": "effect of CaCl2 on the cleavage reaction (Michaelis-Menten curves)", "setting": "Thermolysin; CaCl2 4.14 mM, Thermolysin 17 μg/ml, substrate 5FAMcollagenPPT 5-80 μM", "result": "did not change significantly"}, {"measurement": "effect of CaCl2 on the cleavage reaction (Michaelis-Menten curves)", "setting": "Neutral Protease; CaCl2 4.14 mM, Neutral Protease 20 μg/ml, substrate 5FAMcollagenPPT 5-80 μM", "result": "significantly enhanced"}]}
{"compound": "5-FAM-Ala-Gly-Gly-Pro-Leu-Gly-Pro-Pro-Gly-Pro-Gly-Gly-Lys-[DABCYL]-amide (5FAM-AGGPLGPPGPGGK(DABCYL)-NH2; SMILES CC(C)C[C@H](NC(=O)[C@@H]1CCCN1C(=O)CNC(=O)CNC(=O)[C@H](C)NC(=O)c1ccc2c(c1)C(=O)OC21c2ccc(O)cc2Oc2cc(O)ccc21)C(=O)NCC(=O)N1CCC[C@H]1C(=O)N1CCC[C@H]1C(=O)NCC(=O)N1CCC[C@H]1C(=O)NCC(=O)NCC(=O)N[C@@H](CCCCNC(=O)c1ccc(/N=N/c2ccc(N(C)C)cc2)cc1)C(N)=O) [5FAMcollagenPPT]", "values": [{"measurement": "Km", "setting": "Collagenase I; Example 3 (FIG. 10)", "result": 28.2, "unit": "µM"}, {"measurement": "Vmax", "setting": "Collagenase I; Example 3 (FIG. 10)", "result": 909, "unit": "RFU/min/μg"}, {"measurement": "Enzymes that can cleave 5FAMcollagenPPT: collagenase I (class I)", "setting": "Collagenase I; general statement", "result": "shown to cleave; also recorded: cleaved"}, {"measurement": "effect of pH on enzymatic cleavage activity", "setting": "Collagenase I; pH 6.8, 7.0, 7.5, 8.0, substrate 20 μM", "result": "influenced by pH except Collagenase I"}, {"measurement": "Km", "setting": "Collagenase I; [3]", "result": 32.9, "unit": "µM"}, {"measurement": "Vmax", "setting": "Collagenase I; [3]", "result": 1008.158, "unit": "RFU/min/μg"}, {"measurement": "Km", "setting": "Collagenase I; [4]", "result": 38.1, "unit": "µM"}, {"measurement": "Vmax", "setting": "Collagenase I; [4]", "result": 1704.72, "unit": "RFU/min/μg"}, {"measurement": "Enzymes that can cleave 5FAMcollagenPPT: collagenase II (class II)", "setting": "Collagenase II", "result": "shown to cleave; also recorded: cleaved"}, {"measurement": "Km", "setting": "Collagenase II", "result": "29.7 µM and 24.1 µM and 24.5 µM"}, {"measurement": "Vmax", "setting": "Collagenase II", "result": "3354.43 RFU/min/μg and 3243.942 RFU/min/μg and 5000 RFU/min/μg"}, {"measurement": "effect of pH on enzymatic cleavage activity", "setting": "Collagenase II", "result": "significantly inhibited"}, {"measurement": "Km", "setting": "Thermolysin; [5]", "result": 34.6, "unit": "µM"}, {"measurement": "Vmax", "setting": "Thermolysin; [5]", "result": 24.6, "unit": "RFU/min/μg"}, {"measurement": "specificity of substrate for thermolysin, dose response (FIG. 11)", "setting": "Thermolysin; [6]", "result": "highly specific"}, {"measurement": "cleavage of substrate by thermolysin (FIG. 9)", "setting": "Thermolysin; enzyme 2.5, 5, 10 μg/ml, substrate 50 μM, with and without 4.14 mM CaCl2", "result": "dose-dependent cleavage; also recorded: cleaved"}, {"measurement": "Enzymes that can cleave 5FAMcollagenPPT: thermolysin", "setting": "Thermolysin; general statement", "result": "cleaved by thermolysin; also recorded: shown to cleave; also recorded: cleavable by thermolysin"}, {"measurement": "effect of pH on enzymatic cleavage activity", "setting": "Thermolysin; pH 8.0 compared to all other pH conditions, substrate 20 μM", "result": "significantly inhibited"}, {"measurement": "Km", "setting": "Thermolysin; [7]", "result": 24.8, "unit": "µM"}, {"measurement": "Vmax", "setting": "Thermolysin; [7]", "result": 25.47, "unit": "RFU/min/μg"}, {"measurement": "Km", "setting": "Thermolysin; [8]", "result": 30.4, "unit": "µM"}, {"measurement": "Vmax", "setting": "Thermolysin; [8]", "result": 23.7, "unit": "RFU/min/μg"}, {"measurement": "effect of pH on enzymatic cleavage activity", "setting": "Neutral Protease; between pH 7.0 and pH 8.0, substrate 20 μM", "result": "significant difference"}, {"measurement": "Km", "setting": "Neutral Protease; with 4.14 mM calcium", "result": 45.1, "unit": "µM"}, {"measurement": "Vmax", "setting": "Neutral Protease; with 4.14 mM calcium", "result": 29.28, "unit": "RFU/min/μg"}, {"measurement": "Km", "setting": "Neutral Protease; without calcium", "result": 74.1, "unit": "µM"}, {"measurement": "Vmax", "setting": "Neutral Protease; without calcium", "result": 20.04, "unit": "RFU/min/μg"}, {"measurement": "cleavage of substrate by chymotrypsin, dose response (FIG. 11)", "setting": "chymotrypsin; [6]", "result": "do not cleave"}, {"measurement": "Enzymes that do not cleave 5FAMcollagenPPT: chymotrypsin", "setting": "chymotrypsin; [9]", "result": "chymotrypsin"}, {"measurement": "cleavage of substrate by elastase, dose response (FIG. 11)", "setting": "elastase; [6]", "result": "do not cleave"}, {"measurement": "Enzymes that do not cleave 5FAMcollagenPPT: elastase", "setting": "elastase; [9]", "result": "elastase"}, {"measurement": "Enzymes that can cleave 5FAMcollagenPPT: collagenase", "setting": "collagenase", "result": "collagenase-specific"}, {"measurement": "Enzymes that can cleave 5FAMcollagenPPT: dispase", "setting": "dispase", "result": "cleaved; also recorded: dispase"}, {"measurement": "Enzymes that can cleave 5FAMcollagenPPT: class I/II collagenase", "setting": "Collagenase I/II", "result": "cleaved"}, {"measurement": "cleavage of substrate over time (FIG. 12)", "setting": "[1]", "result": "efficient cleavage"}, {"measurement": "cleavage of substrate by trypsin, dose response (FIG. 11)", "setting": "trypsin; [6]", "result": "do not cleave"}, {"measurement": "cleavage of substrate by trypsin (FIG. 9)", "setting": "trypsin; enzyme 2.5, 5, 10 μg/ml, substrate 50 μM, with and without 4.14 mM CaCl2, compared to thermolysin", "result": "significantly diminished reactivity; also recorded: not cleaved"}, {"measurement": "Enzymes that do not cleave 5FAMcollagenPPT: trypsin", "setting": "trypsin", "result": "not degraded; also recorded: resistant to trypsin; also recorded: resistant to cleavage"}, {"measurement": "Enzymes that do not cleave 5FAMcollagenPPT: trypsin", "setting": "trypsin; listed as 5FAM collagenPPT", "result": "trypsin"}, {"measurement": "Enzymes that can cleave 5FAMcollagenPPT: Botulinum neurotoxin A", "setting": "Botulinum neurotoxin A", "result": "Botulinum neurotoxin A and B"}, {"measurement": "Enzymes that can cleave 5FAMcollagenPPT: Botulinum neurotoxin B", "setting": "Botulinum neurotoxin B", "result": "Botulinum neurotoxin A and B"}, {"measurement": "solubility", "setting": "[2]", "result": "water soluble"}]}
{"compound": "[Cl-].[Cl-].[Zn+2]", "note": "[ZnCl2, reference compound]", "values": [{"measurement": "effect of zinc on measured RFU (enzymatic cleavage)", "setting": "Collagenase I; substrate 20 μM", "result": "significantly decreased"}, {"measurement": "effect of zinc on measured RFU (enzymatic cleavage)", "setting": "Collagenase II", "result": "significantly decreased"}, {"measurement": "effect of zinc on measured RFU (enzymatic cleavage)", "setting": "Thermolysin; substrate 20 μM", "result": "significantly decreased"}, {"measurement": "effect of zinc on measured RFU (enzymatic cleavage)", "setting": "Neutral Protease; substrate 20 μM", "result": "significantly decreased"}]}
{"compound": "O=S(=O)([O-])[O-].[Zn+2]", "note": "[ZnSO4, reference compound]", "values": [{"measurement": "effect of zinc on measured RFU (enzymatic cleavage)", "setting": "Collagenase I; substrate 20 μM", "result": "significantly decreased"}, {"measurement": "effect of zinc on measured RFU (enzymatic cleavage)", "setting": "Collagenase II", "result": "significantly decreased"}, {"measurement": "effect of zinc on measured RFU (enzymatic cleavage)", "setting": "Thermolysin; substrate 20 μM", "result": "significantly decreased"}, {"measurement": "effect of zinc on measured RFU (enzymatic cleavage)", "setting": "Neutral Protease; substrate 20 μM", "result": "significantly decreased"}]}
{"compound": "O=C(O)CN(CCOCCOCCN(CC(=O)O)CC(=O)O)CC(=O)O", "note": "[EGTA, ethylene glycol-bis(β-aminoethyl ether)-N,N,N′,N′-tetraacetic acid, reference compound]", "values": [{"measurement": "effect of EGTA on RFU levels vs controls", "setting": "Collagenase II", "result": "significant differences"}, {"measurement": "effect of EGTA on RFU levels vs controls", "setting": "Thermolysin; EGTA 25, 50, 100 mM, thermolysin 17 μg/ml, substrate 20 μM", "result": "significant differences"}]}
